Measurements: the supplement of paper PMC9170038

What was measured:
MS2 coat protein [1] = test: apparent KD of MS2 coat protein, switch ON state; designed switch direction (-1 OFF switch, 1 ON switch): -1; higher = weaker reporter binding; conditions: FMN input: 0 or 200 uM; Eterna round: R93 (includes R88 designs)
Summary of the method: (§1)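 Titrations with SNAP-549-labelled MS2 coat protein ran in twofold steps from 0.7 or 1.5 nM to 3 µM, each step taking 0.8–1.5 h at the start and 10–20 min toward the end. The targets were designed RNA switches transcribed on-chip from Illumina sequencing clusters, held in 100 mM Tris-HCl pH 7.5, 80 mM KCl, 4 mM MgCl2, without or with constant ligand. Apparent KD was taken per design as the median of normalised cluster binding-curve fits.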

MS2 coat protein [2] = test: apparent KD of MS2 coat protein, switch OFF state (with FMN for OFF switches, without FMN for ON switches); designed switch direction (-1 OFF switch, 1 ON switch): -1; higher = weaker reporter binding; conditions: FMN input: 0 or 200 uM; Eterna round: R93 (includes R88 designs)
Summary of the method: as §1

Row | Sequence | apparent KD of MS2 coat protein (MS2 coat protein [1]) [nM] | apparent KD of MS2 coat protein (MS2 coat protein [2]) [nM]
1 | AAGAAAGCAGGAUAUACAAGAAAGAAAGAAAAGAAAAGAAAACAUGAGGAUCACCCAUGUAGAAGGGCUUAGAA [EteRNA is fun!] | 27.9 | 23.1
2 | AAGAAAGCAGGAUAUACAUGAGGAUCACCCAUGUAAAAGAAAGAAAGGGAAAAGAAAAGUAGAAGGGCUAAGAA [Usermaatre-setepenre Pami] | 23.6 | 26.1
3 | AAGAAAGGAGGAUAUACAAAAUAAAAGAAAAGAAAGAAAGAACAUGAGGAUCACCCAUGUAGAAGGCCUAAGAA [Merhotepre Sobekhotep V] | 23.5 | 14.4
4 | AAGAACAGAGGAUAUACAUGAAAGAAAGAAAAGAAAAGAAAACAUGAGGAUCACCCAUGUAGAAGGCUGAAGAA [EteRNA is fun!] | 28.1 | 25.1
5 | AAGAACUCAGGAUAUGCUAAAGAAAUAAAAAUAAAUAAAGAACAUGAGGAUCACCCAUGUAGAAGGGAGAAGAA [Merkawre Sobekhotep VII] | 76.4 | 46.2
6 | AAGAAGAGAGGAUAUACAUGAGGAUCACCCAUGUAAAAGAAAGAAAAGGGAAAGAAAAGUAGAAGGCUCAAGAA [Aakheperrure Amenhotep II] | 26.4 | 38.3
7 | AAGAAGGGAGGAUAUACAAAAUAAAAGAAAAGAAAGAAAGAACAUGAGGAUCACCCAUGUAGAAGGCUCAAGAA [Mersekhemre Ined] | 37.2 | 24.9
8 | AAGAAGUCAGGAUAUCGAAGACAGACGAAAAGUCUGUCAAACGAGAAGGGACAUGAGGAUCACCCAUGUAAAGA [Mat - Exaclusion 4 - Eli mod - D73] | 63.1 | 61
9 | AAGAAGUCAGGAUAUGCCAAAGGUCACGAAAGUGACAAAGGGCAGAAGGGACAUGAGGAUCACCCAUGUAAAGA [Opal 2] | 47.2 | 56.7
10 | AAGAAGUCAGGAUAUGCGAAUCGAUAAGAACGUCAAAGAAAGCAGAAGGGACAUGAGGAUCACCCAUGUAAAGA [Opal 39] | 30.7 | 27.6
11 | AAGAAGUCAGGAUAUGCUAAAGAAAUGAAAAGAAAGAAAGAACAUGAGGAUCACCCAUGUAGAAGGGACAAGAA [Dedumose I] | 47.1 | 38.3
12 | AAGAAGUGAGGAUAUACAUGAGGAUCACCCAUGUAAAAGAAAGAAAAGGGAAAGAAAAGUAGAAGGCACAAGAA [Maatkare Hatshepsut] | 36.2 | 58.3
13 | AAGAAGUGAGGAUAUACAUGAGGAUCACCCAUGUAAAGAAGAAGAGGAGAGAAUAAAGGUAGAAGGCACAAGAA [JR_Exclusion3_Sub4] | 33.6 | 39.6
14 | AAGAAGUGAGGAUAUGUCUGUGCGAAAAAAAAAAAGUGCAGACAGAAGGCACAUGAGGAUCACCCAUGUGGAAA [Florian 65% 5] | 27.8 | 29.1
15 | AAGAAUCGAGGAUAUACAAAAUAAAAGAAAAGAAAGAAAGAACAUGAGGAUCACCCAUGUAGAAGGCGAAAGAA [Khaneferre Sobekhotep IV] | 30.3 | 21.9
16 | AAGAAUGCAGGAUAUACAUGAAAGAAAGAAAAGAAAAGAAAACAUGAGGAUCACCCAUGUAGAAGGGCAUAGAA [EteRNA is fun!] | 26.8 | 44.1
17 | AAGACUACAGGAUAUACAUGAGGAUCACCCAUGUAACUGACAAGUAGAGGACGGAGAAGUAGAAGGGUAGUCAA [Ruby 35] | 13.6 | 26.7
18 | AAGAGUACAGGAUAUACAUGAAAAGAGUCGAAAGACUCAAAACAUGAGGAUCACCCAUGUAGAAGGGUACUCAA [Hyphema Seclusion Mod 62% 2] | 137 | 98.9
19 | AAGAGUAGAGGAUAUACGGGAAAAGAGUCGAAAGACUCAAAACAUGAGGAUCACCCAUGUAGAAGGCUACUCAA [Hyphema Seclusion Mod 62% 6] | 87.7 | 102
20 | AAGCACAGAGGAUAUACAUGGGUAAAAAAAAAAAAAAAAAAACAUGAGGAUCACCCAUGUAGAAGGCUGUGCAA | 32.6 | 24.3
21 | AAGCUGCUAGGAUAUACAGCAGGGAUUCGAAAACCCACGAAACAUGAGGAUCACCCAUGUAGAAGGAGUAGGGA [Attixe] | 22.9 | 15.2
22 | AAGGGACAUGAGGAUCACCCAUGUCAGGAUAUGCUAUGGAAAAAUAAAAUAAAACAUAGCAGAAGGGAUAAAAA [Mat - Exclusion 1 - Eli mod - D32] | 23 | 51.1
23 | AAGGGACAUGAGGAUCACCCAUGUCAGGAUAUGCUAUGGAAAAUAAAAAUAAAACAUAGCAGAAGGGAUAAAAA [Denovo 3] | 20.2 | 45.4

Row | Sequence | apparent KD of MS2 coat protein (MS2 coat protein [1]) [nM] | apparent KD of MS2 coat protein (MS2 coat protein [2]) [nM]
24 | AAGGGACAUGAGGAUCACCCAUGUCAGGAUAUGCUAUGGAAAUAAAAAAUAAAACAUAGCAGAAGGGACAAAAA [Mat - Exclusion 1 - Eli mod - D33] | 41.2 | 67.6
25 | AAGGGACAUGAGGAUCACCCAUGUCAGGAUAUGCUAUGGAAAUAAAAAAUAAAACAUAGCAGAAGGGACACCAA [Mat - Exclusion 1 - Eli mod - D49] | 24 | 39.2
26 | AAGGGACAUGAGGAUCACCCAUGUGAGGAUAUGAUGCGAAUAAAGAAAGAAGAAAGCAUCAGAAGGCACACCAA [58%, Disencluded 3, 7] | 67.8 | 146
27 | AAGUUACAUGAGGAUCACCCAUGUGAGGAUAUGUGUAUCCCUAAAAAAGUGUGGGACCACAGAAGGUACUUGGA [Mod 2 of Atanri by ViennaUCT, Round 1] | 42.9 | 44.5
28 | AAGUUAUUAGGAUAUACUUGUGCGAUUAAUACGUUGAUAUUACAUGAGGAUCACCCAUGUAGAAGGAAUAAAAA [JR_Exc002_Sub412] | 24.4 | 19.4
29 | AAGUUGCUAGGAUAUACUUGGGCAACAAAUAAACUAAUAUAACAUGAGGAUCACCCAUGUAGAAGGAGCAGAAA [JR_Exc002_Sub206] | 31.8 | 34.9
30 | AAUAACAGAGGAUAUGCAAAAAUAAGCGGAAACGCAAGAAAACAUGAGGAUCACCCAUGUAGAAGGCUGGAUAA [Tetraloop hairpin BlockHead Variations] | 24.6 | 16.7
31 | AAUAAUGCAGGAUAUACUAAAGAAAUGAAAAGAAAUAAAGAACAUGAGGAUCACCCAUGUAGAAGGGCAAAUAA [Yakareb] | 52 | 29.3
32 | AAUGAUUUAGGAUAUACAUGAGGAUCACCCAUGUUCAAAUCGUGGGUCAGGUGAGAAGGUAGAAGGAAAUCACU [Soberior] | 113 | 185
33 | AAUUAGGUAGGAUAUACAUGAGGAUCACCCAUGUGGAAAAAAAACUACGAAAAAGAAUGUAGAAGGACCUAAAA [Ex 3 Frozen] | 18.8 | 21.9
34 | AAUUAGUGAGGAUAUACAUGAGGAUCACCCAUGUGUAAAAAAAAACGCAAAAAAGAAUGUAGAAGGCACUAAAA [Ex 3 Cold] | 20.3 | 37.9
35 | ACAAACCAAGGAUAUACAUGAGGAUCACCCAUGUGUUCGGCGUUUAGCAUGGGCAGCAGUAGAAGGUGGAGAAA [Dilareat] | 37.4 | 93.1
36 | ACAGUUACAGGAUAUACAUGGGUGAAAAAAGUAUAUCCACUACAUGAGGAUCACCCAUGUAGAAGGGUAACUGA [Ex2 Design 174: Random 3] | 18.6 | 12.3
37 | ACCACACAUGAGGAUCACCCAUGUGAGGAUAUCUAGAAAACCUCAUGUAAAAAAAUCUAGAGAAGGCAUAUGAA [Design 93: Pseudoknot C] | 38.3 | 28.4
38 | ACGAAGAGAGGAUAUACGAACAUGUCAAAAGACGUGAAGGGACAUGAGGAUCACCCAUGUAGAAGGCUCUUCGA [Mat - Exclusion 2 - JL mod - D10] | 45.4 | 167
39 | AGAAAGUCAGGAUAUACGAACAAGAAAAAAGACGAGAACGGACAUGAGGAUCACCCAUGUAGAAGGGACAAGAA [Diamond 13] | 73.5 | 36.3
40 | AGAACGUGAGGAUAUACUAACAAACCUCAACAAACAAACAGACAUGAGGAUCACCCAUGUAGAAGGCACAAAAA [EXC - 2] | 54.2 | 27.2
41 | AGAAUACAUGAGGAUCACCCAUGUAAGGAUAUGUGAAGAAAAAGAAAAGAAAAGAAACACAGAAGGUACAAAAG [EX 1 May 18] | 30 | 65.8
42 | AGAAUACAUGAGGAUCACCCAUGUGAGGAUAUCAGAAGAAAAAGAAAAGAAAAGAAACUGAGAAGGCACAAAAG [EX 1 May 15] | 35.7 | 66.1
43 | AGCAAACAUGAGGAUCACCCAUGUCAGGAUAUGAACGAAAAUAAAUAAAAAUAAAAGUUCAGAAGGGACGAGCA [66%, Wbt, 25] | 43.2 | 50.1
44 | AGCAAGAGAGGAUAUACAUAGGAAAAAAAAGUUAGAUCCCUACAUGAGGAUCACCCAUGUAGAAGGCUCUGGCA [Ex2 Design 153: Sub-opt 17] | 42.2 | 37.1
45 | AGCUAGCAAGGAUAUACGAACAUGUCAAAAGACGUGAAGGGACAUGAGGAUCACCCAUGUAGAAGGUGCUAGCA [JL 74% mod 8] | 36.6 | 127
